Substitutions are numbered along the chain they refer to. Names may count otherwise.
B1: IQGAP1 GRD1-CT (aa 863-1657) (domain or fragment)
chain: DPPMVVVRKFVHLLDQSDQDFQEELDLMKMREEVITLIRSNQQLENDLNLMDIKIGLLVKNKITLQDVVSHSKKLTKKNKEQLSDMMMINKQKGGLKALSKEKREKLEAYQHLFYLLQTNPTYLAKLIFQMPQNKSTKFMDSVIFTLYNYASNQREEYLLLRLFKTALQEEIKSKVDQIQEIVTGNPTVIKMVVSFNRGARGQNALRQILAPVVKEIMDDKSLNIKTDPVDIYKSWVNQMESQTGEASKLPYDVTPEQALAHEEVKTRLDSSIRNMRAVTDKFLSAIVSSVDKIPYGMRFIAKVLKDSLHEKFPDAGEDELLKIIGNLLYYRYMNPAIVAPDAFDIIDLSAGGQLTTDQRRNLGSIAKMLQHAASNKMFLGDNAHLSIINEYLSQSYQKFRRFFQTACDVPELQDKFNVDEYSDLVTLTKPVIYISIGEIINTHTLLLDHQDAIAPEHNDPIHELLDDLGEVPTIESLIGESSGNLNDPNKEALAKTEVSLTLTNKFDVPGDENAEMDARTILLNTKRLIVDVIRFQPGETLTEILETPATSEQEAEHQRAMQRRAIRDAKTPDKMKKSKSVKEDSNLTLQEKKEKIQTGLKKLTELGTVDPKNKYQELINDIARDIRNQRRYRQRRKAELVKLQQTYAALNSKATFYGEQVDYYKSYIKTCLDNLASKGKVSKKPREMKGKKSKKISLKYTAARLHEKGVLLEIEDLQVNQFKNVIFEISPTEEVGDFEVKAKFMGVQMETFMLHYQDLLQLQYEGVAVMKLFDRAKVNVNLLIFLLNKKFYGK
notes: human IQGAP1, GRD, RGCT and CT domains, aa 863-1657; The GST tag was cleaved 'if needed'; also called C-terminal half of IQGAP1; C-terminal 795 amino acids of IQGAP1
B2: IQGAP1 GRD1-RGCT wild type (aa 877-1558) (domain or fragment, human, UniProt P46940 877-1558, looked up)
chain: DQSDQDFQEELDLMKMREEVITLIRSNQQLENDLNLMDIKIGLLVKNKITLQDVVSHSKKLTKKNKEQLSDMMMINKQKGGLKALSKEKREKLEAYQHLFYLLQTNPTYLAKLIFQMPQNKSTKFMDSVIFTLYNYASNQREEYLLLRLFKTALQEEIKSKVDQIQEIVTGNPTVIKMVVSFNRGARGQNALRQILAPVVKEIMDDKSLNIKTDPVDIYKSWVNQMESQTGEASKLPYDVTPEQALAHEEVKTRLDSSIRNMRAVTDKFLSAIVSSVDKIPYGMRFIAKVLKDSLHEKFPDAGEDELLKIIGNLLYYRYMNPAIVAPDAFDIIDLSAGGQLTTDQRRNLGSIAKMLQHAASNKMFLGDNAHLSIINEYLSQSYQKFRRFFQTACDVPELQDKFNVDEYSDLVTLTKPVIYISIGEIINTHTLLLDHQDAIAPEHNDPIHELLDDLGEVPTIESLIGESSGNLNDPNKEALAKTEVSLTLTNKFDVPGDENAEMDARTILLNTKRLIVDVIRFQPGETLTEILETPATSEQEAEHQRAMQRRAIRDAKTPDKMKKSKSVKEDSNLTLQEKKEKIQTGLKKLTELGTVDPKNKYQELINDIARDIRNQRRYRQRRKAELVKLQQTYAALNSKATFYGEQVDYYKSYIKTCLDNLASKGKVSKKPREMKGKKSKK
notes: human IQGAP1, GRD and RGCT domains, lacks the last 99 amino acids, aa 877-1558; also called GRD1-RGCT^WT; IQGAP1^877-1558
B3: IQGAP1 GRD1-RGCT S1441E (aa 877-1558) (domain or fragment)
chain: B2 chain with S565E
notes: human IQGAP1 aa 877-1558 with the phosphomimetic mutation S1441E, from the vector pET46 EkLIC; source: E. coli (pLysS BL21(DE3), CodonPlusRIL or BL21(Rosetta)), purified (Ni-NTA, gel filtration)
B4: IQGAP1 GRD1-RGCT S1443E (aa 877-1558) (domain or fragment)
chain: B2 chain with S567E
notes: human IQGAP1 aa 877-1558 with the phosphomimetic mutation S1443E (printed as S1143E in the methods, S1443E everywhere else), from the vector pET46 EkLIC; source: E. coli (pLysS BL21(DE3), CodonPlusRIL or BL21(Rosetta)), purified (Ni-NTA, gel filtration)
B5: GST-fused IQGAP1 RGCT-CT (aa 1276-1657) (domain or fragment, human, UniProt P46940 1276-1657, looked up)
chain: QDKFNVDEYSDLVTLTKPVIYISIGEIINTHTLLLDHQDAIAPEHNDPIHELLDDLGEVPTIESLIGESSGNLNDPNKEALAKTEVSLTLTNKFDVPGDENAEMDARTILLNTKRLIVDVIRFQPGETLTEILETPATSEQEAEHQRAMQRRAIRDAKTPDKMKKSKSVKEDSNLTLQEKKEKIQTGLKKLTELGTVDPKNKYQELINDIARDIRNQRRYRQRRKAELVKLQQTYAALNSKATFYGEQVDYYKSYIKTCLDNLASKGKVSKKPREMKGKKSKKISLKYTAARLHEKGVLLEIEDLQVNQFKNVIFEISPTEEVGDFEVKAKFMGVQMETFMLHYQDLLQLQYEGVAVMKLFDRAKVNVNLLIFLLNKKFYGK
notes: human IQGAP1, RGCT and CT domains, aa 1276-1657; source: E. coli (pLysS BL21(DE3), CodonPlusRIL or BL21(Rosetta)), purified; not shown: GST, N-terminal, kept
B6: IQGAP1 GRD2 (aa 962-1345) (domain or fragment, human, UniProt P46940 962-1345, looked up)
chain: SKEKREKLEAYQHLFYLLQTNPTYLAKLIFQMPQNKSTKFMDSVIFTLYNYASNQREEYLLLRLFKTALQEEIKSKVDQIQEIVTGNPTVIKMVVSFNRGARGQNALRQILAPVVKEIMDDKSLNIKTDPVDIYKSWVNQMESQTGEASKLPYDVTPEQALAHEEVKTRLDSSIRNMRAVTDKFLSAIVSSVDKIPYGMRFIAKVLKDSLHEKFPDAGEDELLKIIGNLLYYRYMNPAIVAPDAFDIIDLSAGGQLTTDQRRNLGSIAKMLQHAASNKMFLGDNAHLSIINEYLSQSYQKFRRFFQTACDVPELQDKFNVDEYSDLVTLTKPVIYISIGEIINTHTLLLDHQDAIAPEHNDPIHELLDDLGEVPTIESLIGESS
notes: human IQGAP1, GAP-related domain fragment GRD2, aa 962-1345, from the vector pMCSG7; source: E. coli (pLysS BL21(DE3), CodonPlusRIL or BL21(Rosetta)), purified (Ni-NTA, gel filtration)
B7: IQGAP1 RGCT (aa 1276-1575) (domain or fragment, human, UniProt P46940 1276-1575, looked up)
chain: QDKFNVDEYSDLVTLTKPVIYISIGEIINTHTLLLDHQDAIAPEHNDPIHELLDDLGEVPTIESLIGESSGNLNDPNKEALAKTEVSLTLTNKFDVPGDENAEMDARTILLNTKRLIVDVIRFQPGETLTEILETPATSEQEAEHQRAMQRRAIRDAKTPDKMKKSKSVKEDSNLTLQEKKEKIQTGLKKLTELGTVDPKNKYQELINDIARDIRNQRRYRQRRKAELVKLQQTYAALNSKATFYGEQVDYYKSYIKTCLDNLASKGKVSKKPREMKGKKSKKISLKYTAARLHEKGVLL
notes: human IQGAP1, RASGAP C-terminal domain, aa 1276-1575; source: E. coli (pLysS BL21(DE3), CodonPlusRIL or BL21(Rosetta)), purified

Molecular target: T1, RAC1 (aa 1-179) (human, UniProt P63000 1-179)
Assay: fluorescence polarisation; IQGAP1 variant titrated to mGppNHp-bound RHO protein (1 μM); equilibrium Kd (eKd), quadratic fit; 30 mM Tris/HCl pH 7.5, 150 mM NaCl, 5 mM MgCl2, 3 mM DTT, 25 °C
Conditions: both partners purified

Question: With B1 as the binder, how does the Kd read?
Answer: Its Kd is 5.53 µM.

Question: For B2, which Kd is on record?
Answer: Its Kd is 4.6 µM.

Question: With B3 as the binder, how does the Kd read?
Answer: Its Kd is 6.7 µM.

Question: With B4 as the binder, how does the Kd read?
Answer: The Kd was 26.7 µM.

Molecular target: T1, RAC1 (aa 1-179)
Assay: stopped-flow fluorometry; mGppNHp-bound RHO protein (0.2 μM) rapidly mixed with IQGAP1 variant (2 μM, or 2-12 μM for kon); koff by displacement with 10 μM non-fluorescent GppNHp-bound GTPase; Kd = koff/kon; 30 mM Tris-HCl pH 7.5, 10 mM KH2PO4/K2HPO4, 5 mM MgCl2, 3 mM DTT
Conditions: both partners purified

Question: Which Kd does the source give for B1 here?
Answer: Its Kd is 0.94 µM.

Question: How did the Kd turn out when B2 was run?
Answer: The Kd was 2.81 µM.

Question: Which Kd does the source give for B3 here?
Answer: The Kd was 3.21 µM.

Question: B4 was tested. Which Kd did it give?
Answer: The Kd was 6.26 µM.

Molecular target: the molecule itself
Assay: SEC; analytical SEC, Superdex 200 10/30, calibrated with standard proteins; 100 μM protein in 200 μl; 30 mM Tris/HCl pH 7.5, 150 mM NaCl, 5 mM MgCl2, 3 mM DTT; 0.5 ml/min
Conditions: not given

Question: Does B5 bind?
Answer: Result: binds

Question: For B6, which “stoichiometry N” value is on record?
Answer: Its value is 2.

Question: B2 was tested. Which “stoichiometry N” value did it give?
Answer: Its value is 2.

Question: Does B7 bind?
Answer: Result: binds

Reference: paper PMC5159498, “IQGAP1 Interaction with RHO Family Proteins Revisited” (The Journal of Biological Chemistry, 2016)
